We go through two proteins from PMC8032705, “Identification and characterization of piperine synthase from black pepper, Piper nigrum L” (Communications Biology, 2021).

Holding throughout (assay type): biochemical, Piper nigrum
Substrate in data set [1]: CC(C)(COP(=O)(O)OP(=O)(O)OC[C@H]1O[C@@H](n2cnc3c(N)ncnc32)[C@H](O)[C@@H]1OP(=O)(O)O)[C@@H](O)C(=O)NCCC(=O)NCCSC(=O)/C=C/C=C/c1ccc2c(c1)OCO2
Kind of data set: HPLC-UV/Vis and LC-MS of piperine (plus isomers) formation. The following applies: co-substrate piperidine, pH 8.0, 30 mM Tris/HCl, 1 mM DTT. The source says:
(§1) HPLC-UV/Vis and LC-MS of piperine (plus isomers) formation on piperine synthase (PipBAHD2)

Substrate in data set [2]: C1CCNCC1
The description is as above. The following applies: co-substrate piperoyl-CoA, pH 8.0, 30 mM Tris/HCl, 1 mM DTT.
Description: as §1

Substrate in data set [3]: CC(C)(COP(=O)(O)OP(=O)(O)OC[C@H]1O[C@@H](n2cnc3c(N)ncnc32)[C@H](O)[C@@H]1OP(=O)(O)O)[C@@H](O)C(=O)NCCC(=O)NCCSC(=O)/C=C/C=C/c1ccc2c(c1)OCO2
Kind of data set: HPLC-UV/Vis and LC-MS of piperine isomer formation. The following applies: co-substrate piperidine, pH 8.0, 30 mM Tris/HCl, 1 mM DTT. An excerpt:
(§2) HPLC-UV/Vis and LC-MS of piperine isomer formation on piperamide synthase (PipBAHD1)

Substrate in data set [4]: C1CCNCC1
Kind of data set: HPLC-UV/Vis and LC-MS of piperine isomer formation. The following applies: co-substrate piperoyl-CoA, pH 8.0, 30 mM Tris/HCl, 1 mM DTT.
Description: as §2

B1: piperine synthase (PipBAHD2) (Piper nigrum) (protein)
chain: MAPSSQLEFNVVRKQPELLPPAEPTPFEWKELSDIDDQDGLRLHISGFFIYPPSTMSNVGRDNVARDIRLGLSKAMVFYYPLAGRIREGPNRKLSVECTGEGIMYCEADADVRLEQFGDIGALSMPFPFMDKVMFETVDDGILGTPLMYFQSTRFICGGIVIAGCYNHAIADGLGFYMFMAAAAQLARGAASPTPLPVWQRERLLSRVPPRVTFIHHEYIHDTPKTETANPLDNEPWPLHSIFFTRVDVAALRAQLPGHLRKSATSFEIISACLWRCRTAALRFAPDELSRLIIAVNARTKFGPPLPQGYYGNSIMLPMVVSEAGKLVLSGLGYAVELVIEAKGKVTEEYVKSVADYLVLNGRPHYVVTNTYLVSDLRQLVEMSKFDWGWGKPAYVGPADVGENAISFLATLKNGEEEGVVVPIRLPESAVGRFKSEVSKMVSFGCLEDVKPNRDGYLSRM
notes: full-length cDNA from immature fruits, N-terminal His10 tag (pET-16b), E. coli LEMO21, IMAC
On to B1, for which, in data set [1], the Km was 0.342 ± 0.060 mM, the kcat was found to be 1.01 ± 0.12 s⁻¹ and the kcat/Km was 2950 M⁻¹ s⁻¹. Besides, the Km in data set [2] stood at 7.6 ± 0.5 mM.

B2: piperamide synthase (PipBAHD1) (Piper nigrum) (protein)
chain: MASSQLEFNVERKQPELLGPAEPTPYELKELSDIDDQDGVRLFLTAIFIYPPPTKTSMPTRKTDPASDIRRGLSKAMVYYYPFAGRIREGPNRKLSVDCTGEGIVFCEADADIRLDGLGDVEVLRPPYPFIDKMTLGEGSAILGAPLVYVQVTRFACGGFIITGRFNHVMADAPGFTMFMKAAADLARGATVPMPLPVWERERYRSRVPPRVTFAHHEYMHVDDPPPRPTSEPWSLHSAFFTKADVATLRAQLPADLRKAATSFDIITACMWRCRVSALQYGPDEVVRLIVAVNSRTKFDPPLTGYYGNGLMLPAAVTEAGKLVGSDLGYAVELVREAKGKVTEEYVRSAADFLVLNGRVHFVVSNTFLVSDLRRLIDLANMDWGWGKAVSGGPVDVGENVISFLATSKNSAGEEGAVVPFCLPDSALGRFTSEVKKLVCFRPLENAAASNPDHGYMSRM
notes: as for B1
Take B2: in data set [3], the Km came out at 0.196 ± 0.009 mM, the kcat amounted to 0.35 ± 0.01 s⁻¹ and the kcat/Km was 1790 M⁻¹ s⁻¹. Further, in data set [4], the Km amounted to 8.69 ± 3.6 mM, the kcat stood at 0.27 ± 0.02 s⁻¹ and the catalytic efficiency (kcat/Km) amounted to 31.1 M⁻¹ s⁻¹.
